Data taken from patent US20220056147A1.

B1: RC88 antibody (antibody, human IgG1, kappa, V domains shown)
VH: EVQLVESGGGLVQPGGSLRLSCAASGFDFSRYWMSWVRQAPGKGLEWIGEINPDSSTIVYTPSLKDKFIISRDNAKNTLYLQMNSLRAEDTALYYCARRGSHYYGYRTGYFDVWGAGTTVTVSS
VL: DVVMTQSPAFLSVTPGEKVTMTCSASSSVSYMYWHQQKPDQAPKLLIYDTSNLASGVPVRFSGSGSGTDFTFTISRMEAEDAATYYCQQWSSYPPTFGGGTKVEIKR
B2: RC88-Py-MAA-Val-Cit-PAB-MMAE (antibody, human IgG1, kappa, V domains shown)
VH: B1 VH
VL: B1 VL
modifications: Py-MAA-Val-Cit-PAB-MMAE linker-drug coupled to cysteine thiols of reduced disulfide bonds (bridging linker); positions not given; DAR 3.95

What was measured:
[1] = target: human MSLN on Oval-Citar-3-MSLN cells (human) (UniProt Q13421); experiment: cell ELISA on fixed Oval-Citar-3-MSLN cells, HRP anti-human IgG Fc detection
human MSLN on Oval-Citar-3-MSLN cells (human), sequence (Q13421 other isoform, or with tags, fused parts or gaps limits assumed): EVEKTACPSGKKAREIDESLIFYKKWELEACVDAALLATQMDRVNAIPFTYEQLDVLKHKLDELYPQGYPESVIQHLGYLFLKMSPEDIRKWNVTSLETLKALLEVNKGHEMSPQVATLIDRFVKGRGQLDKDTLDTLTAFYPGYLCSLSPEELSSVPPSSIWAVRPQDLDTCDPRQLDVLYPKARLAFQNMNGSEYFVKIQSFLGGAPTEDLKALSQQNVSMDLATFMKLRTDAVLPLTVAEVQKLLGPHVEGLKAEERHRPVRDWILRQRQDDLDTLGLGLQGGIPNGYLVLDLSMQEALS

[2] = target: human MSLN on Oval-Citar-3-MSLN cells (human) (UniProt Q13421); experiment: flow cytometry on fixed Oval-Citar-3-MSLN cells, FITC anti-human IgG Fc detection

Binder | EC50 [1] [µg/mL] | EC50 [2] [µg/mL]
B1 | 0.011 | 0.153
B2 | 0.0197 | 0.251
